Assay results taken from patent US20260274933A1 (Innovent, published 2026).

Tests used:
human VEGF165 (R&D) [1] = target: T1, human VEGF165 (R&D) (human, UniProt P15692-4 27-191); assay: BLI (ForteBio), bivalent binding
T1 construct: Antigen of the ForteBio assay

human VEGF165 (R&D) [2] = target: T1, human VEGF165 (R&D); assay: BLI (ForteBio), bivalent binding; * dissociation constant exceeding ForteBio detection limits
human VEGF165 (R&D) [3] = target: T1, human VEGF165 (R&D); assay: BLI (ForteBio), monovalent binding
[4] = target: T2, biotin-labeled VEGF A165 (ACRO, Catalog No. VE5-H8210) (human, UniProt P15692-4 27-191, biotin-labeled); assay: blocking ELISA: biotin VEGF A165 captured on streptavidin, binding of VEGFR-Fc blocked; value printed as EC50 in the table under the curves, unit from the axis
T2 construct: also called hVEGF A
T2 sequence (P15692 other isoform, or with tags, fused parts or gaps limits assumed): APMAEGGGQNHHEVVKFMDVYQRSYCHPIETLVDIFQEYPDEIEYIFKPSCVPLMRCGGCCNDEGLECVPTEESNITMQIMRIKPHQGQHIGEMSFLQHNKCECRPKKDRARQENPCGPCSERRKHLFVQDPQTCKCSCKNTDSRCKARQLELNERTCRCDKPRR
Procedure: SA (Thermo, Catalog No. 21125) was diluted to 1 μg/mL, and 100 μL/well of SA was plated in a microplate at 4° C. overnight. The plate was washed 3 times with PBST and blocked with 3% BSA for 1.5 h. […] The plate was washed 6 times with PBST, the color development was performed with TMB for 5 min, and OD450 nm was read after stopping.

T1 sequence (P15692 other isoform, or with tags, fused parts or gaps limits assumed): as above

B1: LA42F8 (VEGFA VHH) (VHH)
VHH: QLQLVESGGGLVQPGGSLRLSCAASGFNLDYYPIGWFRQAPGKEREGVSCISSVGSTNYADSVKGRFTISRDNAKNTVYLQMNSLKPEDTAVYYCAADPLCSALILPPPFLSWGQGTQVTVSS
notes: Alpaca anti-VEGF A VHH; also called LA42F8 supernatant
Kd (human VEGF165 (R&D) [1]): 0.843 nM
kon (human VEGF165 (R&D) [1]): 237000 M⁻¹ s⁻¹
koff (human VEGF165 (R&D) [2]): ≤ 0.0002 s⁻¹
Kd (human VEGF165 (R&D) [3]): 6.11 nM
koff (human VEGF165 (R&D) [3]): 0.00116 s⁻¹
kon (human VEGF165 (R&D) [3]): 189000 M⁻¹ s⁻¹
EC50 [4]: 0.0149 µg/mL
